{"source": "patent US20230159663A1", "about": "(VIRTUOSO BINCO, published 2023)", "key": {"[1]": {"target": "T1, human CD47 extracellular domain with C-terminal 6×His tag (human, UniProt Q08722 19-139, limits assumed)", "T1 construct": "extracellular domain; Made in Expi293F cells (section 5.4.1); also called recombinant CD47; huCD47", "test": "ELISA on human CD47"}, "[2]": {"target": "T2, human EpCAM extracellular domain with C-terminal His tag (Novoprotein #C339) (human, UniProt P16422 24-265)", "T2 construct": "extracellular domain; Bought protein", "T2 sequence (looked up)": "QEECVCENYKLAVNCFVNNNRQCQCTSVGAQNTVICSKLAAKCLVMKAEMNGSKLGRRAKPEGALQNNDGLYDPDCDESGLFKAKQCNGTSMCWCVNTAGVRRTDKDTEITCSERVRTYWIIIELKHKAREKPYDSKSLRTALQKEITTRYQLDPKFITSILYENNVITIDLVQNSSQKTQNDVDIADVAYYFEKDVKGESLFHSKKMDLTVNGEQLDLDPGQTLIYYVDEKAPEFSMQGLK", "test": "assay not given; ranks EpCAM affinity among Bi-1, Bi-2 and Bi-8"}, "[3]": {"target": "T3, CD47 expressed on human red blood cells (human, UniProt Q08722 19-323)", "T3 construct": "whole, on cells; also called RBCs; RBC", "test": "flow cytometry on human red blood cells", "method": "The RBC binding assay was performed by spinning down fresh human whole blood at 200 g for 10 minutes. Collected RBCs were washed twice with PBS and counted using flow cytometry. 1×10⁶ cells were dispensed into each well of a 96 well culture plate. Serially diluted anti-CD47 antibodies were added and incubated for 1 hour at 4° C. Cells were washed with FACS buffer (PBS+2% FBS) twice. […] Cells were washed twice and resuspended in 200 μl of FACS buffer and analyzed by flow cytometry."}, "[4]": {"target": "T1, human CD47 extracellular domain with …", "test": "ELISA on human CD47; EC50 given as a bin, limits from the table's legend; lower limit of bin A", "method": "(§1) A 96-well plate was coated overnight at 4° C. with 1 μg/ml recombinant CD47. After washing 3 times, the plate was blocked with 300 μl 1% BSA in PBST at 37° C. for 1 hour. Serially diluted antibodies were added and incubated at 37° C. for 1 hour. […] The plate was washed again 4 times with PBST, incubated with 3,3′,5,5′-tetramethylbenzidine (TMB) substrate for 15 min at room temperature, terminated with 1N HCl, and then read at 450 nm."}, "[5]": {"target": "T1, human CD47 extracellular domain with …", "test": "ELISA on human CD47; EC50 given as a bin, limits from the table's legend; upper limit of bin A", "method": "as §1"}, "[6]": {"target": "T1, human CD47 extracellular domain with …", "test": "ELISA on human CD47; EC50 given as a bin, limits from the table's legend; lower limit of bin C", "method": "as §1"}, "[7]": {"target": "T1, human CD47 extracellular domain with …", "test": "ELISA on human CD47; EC50 given as a bin, limits from the table's legend; upper limit of bin C", "method": "as §1"}}, "data": [{"binder": "Bi-8 (3C-KIH EpCAM × CD47 scFv bispecific antibody) (bispecific antibody, Three-chain knob-into-hole format) not shown heavy: not shown VL: EIVLTQSPAITAASLGQKVTITCSASSSVSDMHWYQQKSGTSPKPWIYEISKLASGVPTRFSGSGSGTSYSLTISSMEAEDAAIYYCQHWSYPLMTFGGGTKLEIK", "values": [{"measurement": "binding result", "setting": "[1]", "result": "binds"}, {"measurement": "binding result", "setting": "[2]", "result": "binds"}]}, {"binder": "VIR47 hIgG1 (antibody, also called VIR47 IgG1; IgG1 form of VIR47) heavy: not shown light: SYEMTQPPSVSVSPGQTARITCSGDALPKKYAYWYQQKSGQAPVLVIYEDNKRPSGIPERFSGSSSGTMATLTISGAQVEDEADYYCYSTDISGNHWVFGGGTELTVLGQPKAAPSVTLFPPSSEELQANKATLVCLISDFYPGAVTVAWKADSSPVKAGVETTTPSKQSNNKYAASSYLSLTPEQWKSHRSYSCQVTHEGSTVEKTVAPTECS", "values": [{"measurement": "fold higher concentration required for RBC binding, against CD47 BMK-1", "setting": "[3]", "result": "> 20", "unit": "fold"}, {"measurement": "EC50", "setting": "[4]", "result": "≥ 0.01", "unit": "nM"}, {"measurement": "EC50", "setting": "[5]", "result": "≤ 0.15", "unit": "nM"}]}, {"binder": "VIR47 IgG1 HC F98A (antibody, V domains shown, Alanine-scan variant of the IgG1 form of VIR47; position in Kabat-style numbering, not the linear count on the entry) VH: EVQLLESGGGLVQPGGSLRLSCAASGFTFSNFAMSWVRQAPGKGLEWVSTISASGGRTFYADSVKGRITISRDNSKNTLFLQMNGLRAEDTAVYYCAKEGSAGEGVDPWGQGTLVTVSS VL: SYEMTQPPSVSVSPGQTARITCSGDALPKKYAYWYQQKSGQAPVLVIYEDNKRPSGIPERFSGSSSGTMATLTISGAQVEDEADYYCYSTDISGNHWVFGGGTELTVLG", "values": [{"measurement": "EC50", "setting": "[6]", "result": "≥ 0.4", "unit": "nM"}, {"measurement": "EC50", "setting": "[7]", "result": "≤ 5", "unit": "nM"}]}]}
